The record followed here is the DeepSol protein solubility set.

The series can be described thus: soluble on expression in E. coli; label from the status in PepcDB or PDB records.
On to “MPAALIKDFLLTQGLKLPLDEVRAAYLTAQTVMDMGTASIDRSVLWRSDEGWKLADYLSCDNVREDALKRLFMALDSVFSRSTGVRSAAVYALMPSENQAFQLICLSRQGEVLENLWDLDEAAGKVSLACRSAQSGWMNVASDVRRWLDLGELSGERNHASAAQISIPVCTESGGVLGVVHVEFECAECAGTAAQVEWVALALALSEPLKLLLGMSAGKDGSEDV”, for which the “soluble on expression in E. coli” value is given as “not soluble”.
As to “MNYHVYHSIDVVNGPGTRCTLFVSGCEHNCKGCYNKSTLNPNSGHLFTKELEDKIIADLNDTRIPRRGLSLSGGDPLHPMNCESVLKLVKRVKSECENKDIWMWTGYTLSELNPTQKEIVDLIDTLIDGRFEQDKADPSLDWRGSSNQIIHTFNVLLEHHHHHH”, the “soluble on expression in E. coli” value is “not soluble”.
On to “MGSSHHHHHHSSGLVPRGSHMNQDPTQQLEPFLKRFLASLDLLYTQPTSQPFPNVESYATQLGSNLKRSSAIIVNGQPIIPSPQEDCKLQFQKKWLQTPLSSHQLTSYDGHLIPGTGTFVVHFSAKVRFDQSGRNRLGESADLFQENNSIVSKTNQRPIWGSWFGVDVNLVVDENVMQDGEIINSMDYRFTYVPNDSIIKV”, for which the “soluble on expression in E. coli” value is “soluble”.
With “MAGDPMKVFVVNLDKDKDKKEKIKNECRNAELDYEIISAVDGRELSYNELKSKVHPVSLNYLSKGEIGCVLSHQRIYKRILDDDIDYALILEDDVELSQDIKVFLKEFLSVKDKNKGDVFLLYPSGLRFLNRRINVSHDYFFYEAYNSSCAHGYIISNKAAKKLIRINTPIILVADAWLWFYQISLLKVYVLNKELVRAYDVDKSLSTIETERSLLLDEKEKHQMQIIKKQPLYYLIKYYHKYIRRLFINKDKLEHHHHHH” the entry was “soluble”; with “MGNRKKKCGIVTFHSSHNYGSVLQAYAMVRVMQKMGLDAELIDFRHPRTTDMYEWRLWSTYKNWKWNLRELVLRGLFSFGKKREQVFSDFIENVLKKSKRVKDKNDIPDIYDILVCGSDQIWNPKASGENDPIYYLDFGTTTCKFSYAASSGSVRFGDENPELFKKYLQNLKSIGVRERFMQEYIKEELGLVSEINPDPTFLLNASEWSEIEKPYKGLPDNYLLIYTIKRPKETINFAHQVAVSLNLPTVQICNDRDLNALMHKDVDYRLMNVSPQQFLWLFHHASFIVTNTFHGNMFSVIYRKNFVHYGINSSDTRISTLHDEIRLKNKIVSSFEIDQRIIDYNLIEENVAYYCKCGLNFIQANINDD”, “not soluble”; with “MSLSVPQKRYFLGLHIGHDRAITVADDTNLVFHTAVERLDRKKHSDSFHLPVEEIKTVLLYLNVDVSELRGVCISYLAVDASRVSMTLEASFRDAFPDFEGRFSALDHHLAHALGAKVCSGFDEALVVVADGAGDQRLWGSQSETIYHVSSDTFYLLDERVQSPPLTYINRPEFYDPSYFRPDDQERQISLGLKYEQITYLCGFGPGQAGQTMALAAFGKPLFDYRNMLPKDLSFSLRYTDFLREFEALARADGLSLIQFAKSRRSDIAATYQAYLSEALSAIVKDALDRFPSKRVCFSGGLFLNCLSNRRLHDEHPDRELFFFPACNDEGQSIGTAAYAYWQEHSRLPREGHHHHHH”, “not soluble”.
For the sequence “MIVFYDSWCPMCTAVAEHTKKLDKKGKMKFVSFRNEDVVEKYELSQELQSKMEQRLYIFKNNKWYDGIQSIDVLAKAVPSYWFAVPFIKLSIVLGFGSKVYDYIANNRKLVPVGHCRGGVCEIPTKK”, the “soluble on expression in E. coli” value is reported as “not soluble”.
“MSIRSLGYLRIEATDMAAWREYGLKVLGMVEGKGAPEGALYLRMDDFPARLVVVPGEHDRLLEAGWECANAEGLQEIRNRLDLEGTPYKEATAAELADRRVDEMIRFADPSGNCLEVFHGTALEHRRVVSPYGHRFVTGEQGMGHVVLSTRDDAEALHFYRDVLGFRLRDSMRLPPQMVGRPADGPPAWLRFFGCNPRHHSLAFLPMPTSSGIVHLMVEVEQADDVGLCLDRALRRKVPMSATLGRHVNDLMLSFYMKTPGGFDIEFGCEGRQVDDRDWIARESTAVSLWGHDFTVGARG”: the “soluble on expression in E. coli” value is on record as “soluble”.
Turning to “MAAISFPLLQLPNFALNKTLKLMCVVPHLYLSIISKKAKRCITAVNEKPLYVHINKASSISLRLTTKSFQNFEFIITPGQSDLEIRKYITTRPLFNSYLSTNQCVLGVTAKQWIELIAQVFIQDKGVLLKLQNSNKFNIKEIQYYTRELNIVRLKIESSELQDTQLSKMFPKVEELTVTRDKIPSSILSRNFKKLRFDDIKVSLDNILISNCSSFLIFLQTLPDKDLNRFMKLWIKESNPNLKTFEVCFPDYEQTGLDGTILFKGIRCIDSIKHGEVTRKKFKRHDGTTALVSVFASTSFHFCMTVVG”, the “soluble on expression in E. coli” value is on record as “not soluble”.
With “MGSDKIHHHHHHMLSRTASELYWMARYLERAESLARVLDVTYKLSMMPRHSQQQHDLALPLNLTMTHELFQQRYAHFSMNNLLNFFALDSENPSSIYNCIEMAWNNAHAVRGSLSSEVWECINTTRIDIRNLRHQGVDNIGINEFFDWVKERSHLFRGAMFGTLLRNDAQCFIRIGTLIERACATAQLLNVKHQQLHNDPDPVREYYRLDTLLRAVSAREAYHSIYRQPISPETVTELLVLREDVPRSLHACVGDLVLQLEAIGSQRAKVPHRLAHLLHVELRFSTLDDVLAQDLPTYLNNFIIKINELADSIRHTYLEAL” the entry was “not soluble”; with “MSDVPDDANAGCPGTGSAGAGKASGCAGCPNQGSCATGQGPPPDADVPKIQDRFSRIKHKILILSGKGGVGKSTLTSNLARALASDPSKQVAILDVDICGPSQPRMMGVEDEEVHNSADGWTPVGIQPNLTLMSIAFLLGDKNDAVIWRGARKNGMIKQFLKDVDWGEVDYLLIDTPPGTSDEHISLVQFLLQAGPLDGALIVSTPQEVSLLDVRKEVSFCVKTKVPILGVVENMARFVCPNCAHTTLLFPTSTGGAEQMCKDSNLELLAQLPLEPALAKALDNGEDFFETNPDSTLAKSFLDLAEKVKAKLV”, “not soluble”; with “GMPSEKQPQSKGNKMAILKLDEHLYISPQLTKADAEQIAQLGIKTIICNRPDREEESQPDFAQIKQWLEQAGVTGFHHQPVTARDIQKHDVETFRQLIGQAEYPVLAYCRTGTRCSLLWGFRRAAEGMPVDEIIRRAQAAGVNLENFRERLDNARV”, “soluble”.
Next, “KFVSDVEKEMETLVEAVNKGKNSKKSHSFPPMNRDHRRIIHDLAQVYGLESVSYDSEPKRNVVVTAIR”: “soluble”.
With “MSVLEVKGLTKVYQSKGSVATTALNDINFKIEEGEFVGIMGPSGSGKTTLLNLLATIDKQTSGHVLVNGEEINQMRAAKLAEFRRTHLGFIFQDFNLLDTLSIKENIILPLVMAKKSVNEIDAKVLEIAKFLNIEEILNKKVYEVSGGQQQRAAAARAIIHEPTLILADEPTGNLDSKSAKSLMSALQDLHEQKRVTIAMVTHDPVAASYCERILFIRDGEIFSEIHKGRTKQAFFQEILDVLAMLGGEYHELSPARA” the entry was “not soluble”; with “MENEKIWIKELKEKRLAYGVSQNKLAVASHITRPYLSDIETGKAVPTQQVKEDLLNALERFNPDNPLEMLFDYVRIRFPTNDVAQIIGEVLRLNMDYMLHEDFGYYSYPEHYRFGDIVVLVSHDVSKGVLLELKGKGCRQFENFLLAQHRSWYDFFQDCMEHKGIFKRLDLAINDKTGILNIPDLAKKCKQEECISVFRSFKNYRSGELVHRDEKPYMGNTLYIGSLKSEVYFCIYEKDYEQYVKNDVPLEDAEVKNRFEIRLKNDRATQAMKDLLAHQQAEKTAFEIINRYIRFADKDDTKRRSDWKTNERWEWFIGKNRGALRLTTQPEPYSFERTLNWLHHQVAPTLKIASILDVLNGTTIISTMIQEAKLTEKHEKLIEQQHLAMEDLIT”, “not soluble”; with “MGSDKIHHHHHHMDFALEQYHSAKDLLIFELRKFNPIVLVSSTIVATYVLTNLRHMHLDEMGIRKRLSTWFFTTVKRVPFIRKMIDKQLNEVKDELEKSLRIVDRSTEYFTTIPSHSVGRTEVLRLAAIYDDLEGPAFLEGRVSGAVFNREDDKDEREMYEEVFGKFAWTNPLWPKLFPGVRIMEAEVVRMCCNMMNGDSETCGTMSTGGSISILLACLAHRNRLLKRGEKYTEMIVPSSVHAAFFKAAECFRIKVRKIPVDPVTFKVDLVKMKAAINKRTCMLVGSAPNFPFGTVDDIEAIGQLGLEYDIPVHVDACLGGFLLPFLEEDEIRYDFRVPGVSSISADSHKYGLAPKGSSVVLYRNKELLHNQYFCDADWQGGIYASATMEGSRAGHNIALCWAAMLYHAQEGYKANARKIVDTTRKIRNGLSNIKGIKLQGPSDVCIVSWTTNDGVELYRFHNFMKEKHWQLNGLQFPAGVHIMVTMNHTHPGLAEAFVADCRAAVEFVKSHKPSESDKTSEAAIYGLAQSIPDRSLVHEFAHSYIDAVYALTE”, “not soluble”.
Turning to “MARATTKQDLIMASNGQFEKLWVLIDGMSDDLQNATFADQMATAGKEAHWGRDKNLRDVLVHLYEWHQLLLNWINSNSKGERKPFLPEPYNWKTYSVMNVEFWKKHQQTPLAEAKDKLKESHRQVMALIETFSNDELFAKGVFDWTDTSTLGAYCVSATSSHYDWAMKKIKLHIKTGK”, the “soluble on expression in E. coli” value is “not soluble”.
With “MGSDKIHHHHHHMLASSDLPYRKMITWAGFYQDYYLVDINTGRKLPLLTQQPSDSDPSLSGDGKFVVYYQQGHVYLYDIAQGRRTNLTQSLKVSFADEDHDYPSNAPGYGFGPWLKDDAGILVYDKFDVWQFNTASKTGFALTAGQGRAQKIQYRLEGLVDNPDEPTTLAYNATVLLHGYSDKTKADGFYQATLGEAGVKTLMEGEYKLTVLGRSKDTDTLVFSKERFDLFPDLYTASYQAPQQAVKQTDLDKQRQAFNWSQAELVHWTNGDGKPLDGVLIKPTNYQAGERYPVLVYYYELMTDRLHAFPQMKVNHRPNFAWYVNNGYALFLPDIRFDIGYPGASSVQTLTSGVQKLIDMGVADANAIGLQGHSWSGYQTAFAITQTKMFKAAVAGAPVANMTSAYNGIRHGTGIARQFQYETGQSRIGASLFAAPQKYIENSPVFYADRIKTPLMIMFGDKDDAVPWEQGVEMYLAMRRAGKDVVFLQYEDEPHHLKKYPNKLDYSIRMMEYFDHYLKGKPAPAWLSQGEAYVEYKADDE” the entry was “not soluble”; with “MPDDKAVNGRRDFLRKTLTVIPAVTLAGYGVGHAMQTPAAEQDKPRERYQPRFFTNTEWAFVNAAVARLIPSDDNGPGAIEAGVPEFIDRQMETPYGHGALWYMQGPFVTDAAPEFGHQLKLVPRDIYRVGIAALERWSKANQGKPFAELEPSAQDDILQRLEAGQIDLQDLPAKLLFGQLLQNTHEGFFSDPQHGGNRGLVGWKLVGFPGARADFMDWADRGEKYPFPPVAISGERG”, “not soluble”.
With “MGMKFRVVCRKLYDYVRYDLKEIAFPSSLPDPPHIKKRPKLTLKDKWCILKEATRLYGASWVRDIGPDLRPNDYKKVKEEPDIKTEEGSSEPTTVEDLLGALKGGAEKAKPALQRMYMARASNYTDALKNYVESYKEGLKEHLEEEAMGKGHRQGNDATKPPQSPSS”, the “soluble on expression in E. coli” value is recorded as “soluble”.
Take “TVSRENRAEDSRVAAKGVAFGGGETVRIAAEPSVWSNADAVFLDPFFTSANLYDTLSADEGRGRCRRLAEQAASAHGAGKPVLVRVRNVRHVEAALNAGADILYLGGGLMSDLAVLNEAGSLNIPLVLCKDKHHSAEDWLNAAEYVVSRGNRHLILGESGVLGHTKGHPYRLDVESIVKVRQISHLPVIANITGLWSRDMPQEILYGLAKAAGACGIV”: the “soluble on expression in E. coli” value is on record as “not soluble”.
With “DDRGDFALVAGDALPQFSVEMSDGGVLNTQSFSGKVGVIVFFHTDCPDCQKELPVIQKVYDTYKENPDVLLSCISRSESGSEVQAYWEKHSFSLPFSAQNDDAVFSLFASHTIPRILITDKEGIIRAVYTDDPLATYQELAKDIDAVL” the entry was “soluble”.
